Holding throughout (assay): cell-based or functional assay
For experiment [1], the target named is murine LFA-3 (CD48) (murine) (UniProt P18181).
Experiment [2] concerns the target murine Intercellular adhesion molecule-1 (ICAM-1, CD54) (murine) (UniProt P13597).
Experiment [3] deals with murine B7-1 (CD80) (murine) (UniProt Q00609).
Chain of UniProt Q00609 (Q00609 38-306): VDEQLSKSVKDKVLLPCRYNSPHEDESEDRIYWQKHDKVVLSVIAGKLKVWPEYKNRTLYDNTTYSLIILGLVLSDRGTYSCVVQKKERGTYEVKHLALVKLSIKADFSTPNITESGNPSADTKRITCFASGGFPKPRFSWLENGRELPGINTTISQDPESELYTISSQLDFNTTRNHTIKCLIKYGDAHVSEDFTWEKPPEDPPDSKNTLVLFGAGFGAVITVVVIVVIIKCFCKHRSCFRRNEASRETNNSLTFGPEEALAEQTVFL

Chain of UniProt P18181 (P18181 23-217): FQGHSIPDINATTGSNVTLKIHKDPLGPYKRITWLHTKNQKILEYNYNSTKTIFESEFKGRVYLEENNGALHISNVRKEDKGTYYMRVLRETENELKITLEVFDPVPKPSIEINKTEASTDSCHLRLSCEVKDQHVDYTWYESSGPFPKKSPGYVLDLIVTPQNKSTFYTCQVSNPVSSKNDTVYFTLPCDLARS
Chain of UniProt P13597 (P13597 28-537): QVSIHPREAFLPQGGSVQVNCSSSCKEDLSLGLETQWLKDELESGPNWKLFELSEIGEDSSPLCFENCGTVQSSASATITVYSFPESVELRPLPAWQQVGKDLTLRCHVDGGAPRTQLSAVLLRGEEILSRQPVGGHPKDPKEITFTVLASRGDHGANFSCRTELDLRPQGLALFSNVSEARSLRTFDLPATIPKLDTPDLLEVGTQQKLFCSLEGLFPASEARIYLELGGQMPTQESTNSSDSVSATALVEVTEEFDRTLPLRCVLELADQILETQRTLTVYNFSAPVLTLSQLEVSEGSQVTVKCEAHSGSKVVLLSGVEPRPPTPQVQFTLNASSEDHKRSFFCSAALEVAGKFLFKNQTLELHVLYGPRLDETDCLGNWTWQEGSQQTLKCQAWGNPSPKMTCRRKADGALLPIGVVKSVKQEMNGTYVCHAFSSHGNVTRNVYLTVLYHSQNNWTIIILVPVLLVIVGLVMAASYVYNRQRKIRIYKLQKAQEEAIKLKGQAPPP

Regarding “Hamster anti-murine CD48 (BCM-1; clone HM48-1) (antibody)”, the reduction of the increased T-cell proliferation (3H-Thymidine) induced by MC38/LFA-3 stimulator cells with Con A in experiment [1] was 98%. On to “Hamster anti-murine CD54 (ICAM-1; clone 3E2) (antibody)”, for which, in experiment [2], the reduction of the increased T-cell proliferation (3H-Thymidine) induced by MC38/ICAM-1 stimulator cells with Con A worked out at 88%. For the substance “Hamster anti-murine CD80 (B7-1; clone 16-10A1) (antibody)”, the inhibition of the increased T-cell proliferation (3H-Thymidine) induced by MC38/B7-1 stimulator cells with Con A in experiment [3] worked out at 83%.

(Values after patent EP1865065A1.)
